# The supplement of paper PMC10567573
# B1: PTPRD (parent)
# chain: ITWFKDFLPVDTSNNNGRIKQLRS
# Variants of: B1
# Experiment: protein stability index of a GFP-peptide fusion (GPS, HEK-293T) (PSI 1-6); higher = more stable
# Conditions: c terminus: a fixed tail appended
# 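Note: lentivirally expressed fusions sorted by FACS into six bins by GFP to DsRed ratio, PSI derived from sequencing read proportions per bin multiplied by bin number.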
row,Variant,protein stability index
1,ITWFKDFLPVDTSNNNGRISQLRS [K20S],2.72
2,ITWFKDFLPVDTSNNNGRINQLRS [K20N],2.08
3,ITWFKDFLPVDTSNNNGRIHQLRS [K20H],1.63
4,ITWFKDFLPVDTSNNNGRIWQLRS [K20W],1.95
5,ITWFKDFLPVDTSNNNGRITQLRS [K20T],1.95
6,ITWFKDFLPVDTSNNNGRIGQLRS [K20G],1.58
7,ITWFKDFLPVDTSNNNGRICQLRS [K20C],1.43
8,ITWFKDFLPVDTSNNNGRIAQLRS [K20A],1.66
9,ITWFKDFLPVDTSNNNGRIDQLRS [K20D],2.05
10,ITWFKDFLPVDTSNNNGRIRQLRS [K20R],1.53
11,ITWFKDFLPVDTSNNNGRIYQLRS [K20Y],2.19
12,ITWFKDFLPVDTSNNNGRIFQLRS [K20F],1.98
13,ITWFKDFLPVDTSNNNGRIQQLRS [K20Q],1.94
14,ITWFKDFLPVDTSNNNGRIMQLRS [K20M],1.55
15,ITWFKDFLPVDTSNNNGRIPQLRS [K20P],1.61
16,ITWFKDFLPVDTSNNNGRILQLRS [K20L],2
17,ITWFKDFLPVDTSNNNGRIEQLRS [K20E],1.74
18,ITWFKDFLPVDTSNNNGRIVQLRS [K20V],1.68
19,ITWFKDFLPVDTSNNNGRIIQLRS [K20I],1.31
20,ITWFKDFLPVDTSNNNGRIKALRS [Q21A],1.57
21,ITWFKDFLPVDTSNNNGRIKLLRS [Q21L],1.73
22,ITWFKDFLPVDTSNNNGRIKELRS [Q21E],2.2
23,ITWFKDFLPVDTSNNNGRIKILRS [Q21I],2.23
24,ITWFKDFLPVDTSNNNGRIKYLRS [Q21Y],1.93

row,Variant,protein stability index
1,ITWFKDFLPVDTSNNNGRIKHLRS [Q21H],1.56
2,ITWFKDFLPVDTSNNNGRIKNLRS [Q21N],1.99
3,ITWFKDFLPVDTSNNNGRIKDLRS [Q21D],2.17
4,ITWFKDFLPVDTSNNNGRIKPLRS [Q21P],2.01
5,ITWFKDFLPVDTSNNNGRIKRLRS [Q21R],1.55
6,ITWFKDFLPVDTSNNNGRIKMLRS [Q21M],1.45
7,ITWFKDFLPVDTSNNNGRIKSLRS [Q21S],2.38
8,ITWFKDFLPVDTSNNNGRIKVLRS [Q21V],1.67
9,ITWFKDFLPVDTSNNNGRIKTLRS [Q21T],1.69
10,ITWFKDFLPVDTSNNNGRIKFLRS [Q21F],1.75
11,ITWFKDFLPVDTSNNNGRIKCLRS [Q21C],1.52
12,ITWFKDFLPVDTSNNNGRIKKLRS [Q21K],2.58
13,ITWFKDFLPVDTSNNNGRIKGLRS [Q21G],2.28
14,ITWFKDFLPVDTSNNNGRIKWLRS [Q21W],2.24
15,ITWFKDFLPVDTSNNNGRDKQLRS [I19D],2.08
16,ITWFKDFLPVDTSNNNGREKQLRS [I19E],1.95
17,ITWFKDFLPVDTSNNNGRSKQLRS [I19S],1.54
18,ITWFKDFLPVDTSNNNGRWKQLRS [I19W],1.46
19,ITWFKDFLPVDTSNNNGRKKQLRS [I19K],2.33
20,ITWFKDFLPVDTSNNNGRFKQLRS [I19F],2.25
21,ITWFKDFLPVDTSNNNGRQKQLRS [I19Q],2.57
22,ITWFKDFLPVDTSNNNGRLKQLRS [I19L],2.07
23,ITWFKDFLPVDTSNNNGRAKQLRS [I19A],1.72
24,ITWFKDFLPVDTSNNNGRCKQLRS [I19C],1.69

row,Variant,protein stability index
1,ITWFKDFLPVDTSNNNGRRKQLRS [I19R],1.84
2,ITWFKDFLPVDTSNNNGRGKQLRS [I19G],2.24
3,ITWFKDFLPVDTSNNNGRTKQLRS [I19T],2.23
4,ITWFKDFLPVDTSNNNGRNKQLRS [I19N],1.95
5,ITWFKDFLPVDTSNNNGRHKQLRS [I19H],1.53
6,ITWFKDFLPVDTSNNNGRVKQLRS [I19V],1.73
7,ITWFKDFLPVDTSNNNGRYKQLRS [I19Y],2.13
8,ITWFKDFLPVDTSNNNGRMKQLRS [I19M],2.04
9,ITWFKDFLPVDTSNNNGRPKQLRS [I19P],1.69
10,ITWFKDFLPVDTSNNNGQIKQLRS [R18Q],2.24
11,ITWFKDFLPVDTSNNNGFIKQLRS [R18F],2.04
12,ITWFKDFLPVDTSNNNGPIKQLRS [R18P],2.08
13,ITWFKDFLPVDTSNNNGLIKQLRS [R18L],1.45
14,ITWFKDFLPVDTSNNNGDIKQLRS [R18D],1.83
15,ITWFKDFLPVDTSNNNGSIKQLRS [R18S],1.95
16,ITWFKDFLPVDTSNNNGVIKQLRS [R18V],2.33
17,ITWFKDFLPVDTSNNNGEIKQLRS [R18E],1.87
18,ITWFKDFLPVDTSNNNGMIKQLRS [R18M],1.63
19,ITWFKDFLPVDTSNNNGKIKQLRS [R18K],1.68
20,ITWFKDFLPVDTSNNNGCIKQLRS [R18C],2.83
21,ITWFKDFLPVDTSNNNGTIKQLRS [R18T],1.93
22,ITWFKDFLPVDTSNNNGIIKQLRS [R18I],1.74
23,ITWFKDFLPVDTSNNNGWIKQLRS [R18W],1.62
24,ITWFKDFLPVDTSNNNGYIKQLRS [R18Y],2.1

row,Variant,protein stability index
1,ITWFKDFLPVDTSNNNGHIKQLRS [R18H],2.77
2,ITWFKDFLPVDTSNNNGNIKQLRS [R18N],1.97
3,ITWFKDFLPVDTSNNNGGIKQLRS [R18G],2.73
4,ITWFKDFLPVDTSNNNGAIKQLRS [R18A],1.8
5,ITWFKDFLPVDTSNNNYRIKQLRS [G17Y],1.78
6,ITWFKDFLPVDTSNNNTRIKQLRS [G17T],2.25
7,ITWFKDFLPVDTSNNNWRIKQLRS [G17W],2.63
8,ITWFKDFLPVDTSNNNVRIKQLRS [G17V],1.31
9,ITWFKDFLPVDTSNNNGRIKQNRS [L22N],2.01
10,ITWFKDFLPVDTSNNNGRIKQPRS [L22P],1.63
11,ITWFKDFLPVDTSNNNGRIKQCRS [L22C],1.61
12,ITWFKDFLPVDTSNNNGRIKQARS [L22A],1.69
13,ITWFKDFLPVDTSNNNGRIKQRRS [L22R],1.83
14,ITWFKDFLPVDTSNNNGRIKQIRS [L22I],2.24
15,ITWFKDFLPVDTSNNNGRIKQGRS [L22G],1.84
16,ITWFKDFLPVDTSNNNGRIKQHRS [L22H],2.28
17,ITWFKDFLPVDTSNNNGRIKQMRS [L22M],1.88
18,ITWFKDFLPVDTSNNNGRIKQFRS [L22F],2.01
19,ITWFKDFLPVDTSNNNGRIKQDRS [L22D],2
20,ITWFKDFLPVDTSNNNGRIKQKRS [L22K],1.77
21,ITWFKDFLPVDTSNNNGRIKQERS [L22E],2.07
22,ITWFKDFLPVDTSNNNGRIKQQRS [L22Q],1.62
